The source of these data is patent US9623039B2, “Treatment and prevention of pathological conditions using iduna related techniques and compositions” (VALTED, LLC, priority 2010, dated 2017).

The test system of one experiment is primary neurons. Briefly: H2O2-induced cell death in primary neurons. The settings on record: 100 μM H2O2. It counts as cell-based, mouse. The method, then:
FIGS. 44 and 45—Iduna protects against peroxide-induced cell death in primary neurons. Primary neuronal cultures were transduced with lentiviruses expressing GFP, GFP-Iduna or GFP-Iduna-YRAA. 4 days following lentiviral transduction, cultures were treated with H2O2 (100 μM or 500 μM) and cell death assessed 24 h later using PI and Hoechst staining.
Cell Death Assessment: Following exposure of neuronal cultures to the various treatments neuronal survival was quantified and presented as percent of cell death. Percent cell death was determined as the ratio of live-to-dead cells compared with the percent cell death in control wells to account for cell death attributable to mechanical stimulation of the cultures. Quantification of neuronal survival was determined by staining treated cultures with 5 μM Hoechst 33342 and 2 μM propidium iodide (PI) (Invitrogen, Carlsbad, Calif.). Culture plates were placed on a mechanized stage of a Zeiss microscope and photomicrographs were collected by a blinded observer. The numbers of total and dead (PI positive) cells were counted by automated computer assisted software (Axiovision 4.6, Zeiss, Germany). The raw counts are presented in an Excel file for generation of percent cell death and statistical analysis. Glial nuclei fluoresce at a lower intensity than neuronal nuclei and were gated out by the software program. […]

In a further experiment the test system is AIF. Briefly: NMDA-induced AIF translocation in cortical neurons. The settings on record: excitotoxic NMDA. It counts as cell-based, mouse. From the text: Parthanatos involves the translocation of apoptosis inducing factor (AIF) from the mitochondria to the nucleus following NMDA excitotoxicity. AIF translocation following excitotoxic NMDA treatment was monitored by immunohistochemistry and confocal microscopy (FIG. 50) and by immunoblot analysis of nuclear and mitochondrial subcellular fractions (FIG. 51).

In the next experiment the test system is PAR polymer. Briefly: Competition binding of unlabeled PAR polymer against [32P]-labeled PAR polymer. Here is the method: The affinity of Iduna and Iduna-YRAA for PAR binding was determined by a competition assay with increasing concentrations of unlabeled PAR polymer against 2.5 nM [^32P]-labeled PAR polymer (mean size of 40 ADP-ribose units) (FIG. 29). […] The PAR polymer synthesized by in vitro automodification of PARP-1 has a mean length of 40 ADP-ribose residues and accordingly the concentration of PAR is given as a function of polymer molecules with a mean size of 40 ADP-ribose units. These concentrations of PAR polymers are within the range of polymer concentrations found in intact cells during NMDA excitotoxicity and N-methyl-N-nitro-N-nitrosoguanidine (MNNG) toxicity. PAR polymer fails to bind to Iduna-YRAA (FIG. 29). […] The observed Kd is 10 times less than the PAR polymer concentration found after NMDA-induced excitotoxicity in cortical neurons.
Nitrocellulose PAR-binding Assay: Synthetic peptides or purified proteins were diluted in TBS-T buffer (1 μg/μl) and loaded onto a nitrocellulose membrane (0.05 μm) using a dot blot manifold system (Life Technologies). The membranes were washed once with TBS-T buffer, removed from the manifold and air dried. The membranes were then incubated in 10 ml of TBS-T buffer containing an indicated concentration of both [^32P]-labeled automodified PARP-1 and [^32P]-labeled PAR polymer for 3 h at room temperature with constant shaking. The membranes were washed with TBS-T buffer at 4° C. until no radioactivity could be detected in the waste. Finally, the membrane was air dried and subjected to autoradiography on Bio-Max MR (Kodak) films or analyzed by Cerenkov counting using an Instant Imager system (Perkin Elmer).

Experiment [1] deals with MCF7 cells. The experiment in a line: Alkaline comet assay after γ-irradiation. Format: cell-based, human. The settings on record: γ-irradiation 2 Gy, 15 min. Here is the method:
Comet assay. Single cell gel electrophoresis assay was performed by following the manufacturer's instructions. Briefly, established stable cell lines were irradiated (2 Gy) with a Gammacell irradiator and then further incubated for 15 min at 37° C. Cells were collected at 500×g at 4° C. and rinsed twice with ice cold PBS (Ca++ and Mg++ free). A total of 5×10^5 cells were counted and resuspended into PBS (Ca++ and Mg++ free) and then combined with LMAgarose (low melting agarose) at a ratio 1:10 (v/v). Each sample was spotted into CometSlide™ and lysed with buffer (supplied with CometAssay Kit, Trevigen) for 1 h at 4° C. After draining the excess lysis buffer, slides were immersed with alkaline unwinding solution (200 mM NaOH, pH>13, 1 mM EDTA) for 1 h at RT. To the single cell electrophoresis, each comet slide was placed in electrophoresis slide tray with 1 L of alkaline unwinding solution and applied to 21 Volts for 30 min for electrophoresis. After draining the excess electrophoresis buffer, slides were rinsed twice with dH2O and then fixed with 70% ethanol for 5 min. To facilitate single cell observation, slides were dried at 40° C. and stained with SYBR Green I (supplied with CometAssay Kit) for 5 min at 4° C. […] Fifty cells per slide were monitored and the DNA damage was calculated using comet tail length and head diameter parameters.

In experiment [2] the test system is MCF7 cells. The experiment in a line: MNNG cell death assay in stable MCF7 cell lines. Format: cell-based, human. The settings on record: MNNG 500 μM 15 min, 24 hr. The method, then: Cell death assay. GFP, GFP-Iduna, GFP-Iduna C60A, GFP-Iduna YRAA, shRNA-Iduna and shRNA-Iduna/GFP-Iduna stably transfected cells were treated with 500 μM MNNG for 15 min, and replaced with fresh growth media. After 24 h, the cells were stained with […] Hoechst 33342 (Invitrogen) and […] propidium iodide (PI) (Invitrogen) and counted by automated computer-assisted program (Carl Zeiss). The percentage of cell death was determined as the ratio of live to dead cells compared with the percentage of cell death in control.

In a further experiment the target is T1, PARP-1 (Homo sapiens, UniProt P09874).
T1 construct: purchased Trevigen
Briefly: Chemiluminescent PARP assay (biotinylated PAR onto histone). The settings on record: incorporation of biotinylated PAR onto histone proteins. It counts as biochemical. The method, then:
Because PARP-1 activation plays a prominent role in NMDA excitotoxicity we tested whether PARP-1 activity is directly affected by Iduna. PARP-1 activity was assessed by incorporation of biotinylated PAR onto histone proteins.
Chemiluminescent PARP assay for poly(ADP-ribosyl)ation of Histone H1: Activity of PARP-1 was determined by Trevigen Universal chemiluminescent PARP assay kit (Trevigen, Gaithersburg, Md., USA) in the presence of Iduna or the PARP-1 inhibitor 3-aminobenzamide (3-AB). According to manufacturer's instructions, the incorporation of biotinylated NAD+ (Trevigen) into the poly(ADP-ribose) polymer primed at solid phase immobilized histone H1 (Trevigen) was detected by the chemiluminescent assay, either in the presence or absence of recombinant Iduna. Reactions were performed with 34 μM total biotinylated NAD+ for 60 min at 25° C. in triplicates. Chemiluminescence was measured using a fluorescence multi-well plate reader (SOSTmax, Sunnyvale, Calif.) with an excitation at 544 nm excitation/590 nm emission. In the parallel wells, PARP1 activity was measured after the 3-aminobenzamide treatment at the same concentration of biotinylated NAD+ (34 μM).

T1 sequence (P09874 whole entry): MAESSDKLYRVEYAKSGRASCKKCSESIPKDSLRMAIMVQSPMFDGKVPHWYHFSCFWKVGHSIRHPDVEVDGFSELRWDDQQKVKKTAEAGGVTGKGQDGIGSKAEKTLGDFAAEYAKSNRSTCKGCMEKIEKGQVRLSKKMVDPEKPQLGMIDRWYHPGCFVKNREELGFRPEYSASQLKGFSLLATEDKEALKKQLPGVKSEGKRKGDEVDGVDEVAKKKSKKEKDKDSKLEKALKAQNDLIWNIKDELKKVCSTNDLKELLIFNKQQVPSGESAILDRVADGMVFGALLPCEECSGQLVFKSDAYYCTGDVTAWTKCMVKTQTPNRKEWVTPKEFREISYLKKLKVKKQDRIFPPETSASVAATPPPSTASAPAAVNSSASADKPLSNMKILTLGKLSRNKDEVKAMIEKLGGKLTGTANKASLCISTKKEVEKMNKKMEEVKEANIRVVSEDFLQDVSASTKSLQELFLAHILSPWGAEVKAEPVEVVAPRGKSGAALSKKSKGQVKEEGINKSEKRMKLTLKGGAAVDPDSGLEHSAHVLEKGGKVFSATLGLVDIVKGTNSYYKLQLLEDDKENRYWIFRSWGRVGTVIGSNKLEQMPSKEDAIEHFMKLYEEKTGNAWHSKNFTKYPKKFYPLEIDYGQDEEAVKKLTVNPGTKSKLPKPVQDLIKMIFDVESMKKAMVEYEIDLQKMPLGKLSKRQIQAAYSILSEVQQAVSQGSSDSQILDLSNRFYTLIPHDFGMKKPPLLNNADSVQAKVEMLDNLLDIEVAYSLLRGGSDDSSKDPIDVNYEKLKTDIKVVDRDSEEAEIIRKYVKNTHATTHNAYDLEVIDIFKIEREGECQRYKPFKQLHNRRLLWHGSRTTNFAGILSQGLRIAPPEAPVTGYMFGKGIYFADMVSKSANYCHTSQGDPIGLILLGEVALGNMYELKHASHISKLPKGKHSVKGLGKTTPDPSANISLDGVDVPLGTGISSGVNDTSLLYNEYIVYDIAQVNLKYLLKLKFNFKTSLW

B1: Iduna: novel NMDA-induced cell survival protein, PAR-dependent E3 ligase; 359 amino acids (protein)
chain: MEMAGCGEIDHSINMLPTNKKANESCSNTAPSLTVPECAICLQTCVHPVSLPCKHVFCYLCVKGASWLGKRCALCRQEIPEDFLDKPTLLSPEELKAASRGNGEYAWYYEGRNGWWQYDERTSRELEDAFSKGKKNTEMLIAGFLYVADLENMVQYRRNEHGRRRKIKRDIIDIPKKGVAGLRLDCDTNTVNLARESSADGADSGSAQTGASVQLAVPSSTRPLTSVDGQLTSPVTPSPDAGISLEDSFAHLQLSGDSIAERSHRGEGEEDHESPSSGRVPDTSVEETESDASSDSEDAPVVVAQHSLTQQRPLVPNGNQTVADQSDRSGTDRSVAGGGTMSVNVRSRRPDGQCTVIEV
Take B1: the “protection against H2O2 toxicity” value with primary neurons is “protects only against 100 μM H2O2”. Besides, in the experiment on AIF, the “AIF translocation to the nucleus” value is given as “reduces the translocation of AIF”. The “maximum binding capacity (Bmax)” value in the experiment on PAR polymer (competitive binding curve) turned out to be 3.04 ± 0.16 µmol. Further, the Kd (as a rule, the constant that tells how readily two partners part at equilibrium) on PAR polymer (homologous competitive binding curve, Cheng-Prusoff equation, read-out: dissociation constant (Kd)) turned out to be 12 nM. For the same molecule, on PAR polymer (unlabeled PAR polymer against 2.5 nM [32P]-labeled PAR polymer, mean size 40 ADP-ribose units, read-out: EC50 of wild type Iduna for PAR polymer), the EC50 (usually the concentration that produces a half-maximal response) was determined as 14.5 ± 0.13 nM. Further, the “comet head diameter and tail length” value in the experiment with MCF7 cells [1] was “dramatically prevents the reduction in head diameter and increase in tail length”. Further, the MNNG-induced cell death result in the experiment on MCF7 cells [2] is listed as “dramatically rescues MCF7 cells from MNNG-induced cell death”. Moreover, in the experiment with PARP-1, the PARP-1 activity result was “has no effect”.
